Results reported in patent US7842469B2, “Bioluminescence resonance energy transfer (BRET) systems and methods of use thereof” (Stanford University, priority 2005, dated 2010).
Read-outs that look alike come from different tables or passages of the source.

Tests used:
[1] = Luciferase activity of purified RLuc mutants (light output integrated over 10 s, luminometer); format: biochemical; conditions: 10 s integration
In short: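 Purified RLuc mutant sample, diluted in EB with 1% HSA, added to room-temperature 100 mM sodium phosphate (pH 7), then 1 μl of 0.5 μg/μl coelenterazine or analog mixed in manually. Light read for 10 s starting ~4 s after luciferin addition. Luminometer calibrated to photons/s against luminol standard in DMSO.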

[2] = Serum stability in mouse serum at 37° C.; format: in vitro ADME; conditions: mouse serum, 37° C., mono-exponential fit
In short: (§1)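 Luciferase diluted into mouse or rat serum at 37° C; aliquots withdrawn over time for activity, half-life from mono-exponential decay fit. Emission spectra recorded at ambient temperature with a grating spectrometer and cooled CCD detector.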

[3] = Serum stability in rat serum at 37° C.; format: in vitro ADME; conditions: mono-exponential fit
In short: as §1

[4] = Bioluminescence emission spectra; format: physicochemical; conditions: emission spectrum with native coelenterazine
In short: as §1

[5] = Quantum yield measurements; format: biochemical
Description: For quantum yield measurements, separate 1 μl drops of protein (about 2 pm) and substrate (0.2 pm) were placed in a tube, 100 μl of 100 mM sodium phosphate buffer (pH 7) was injected by the luminometer to mix, and the total light output was integrated (generally 5-10 min). For coelenterazine-n, the protein amount was increased 10 fold and the acquisition time lengthened to insure the reaction approached completion.

[6] = Kinetics (Michaelis-Menten fit to initial reaction velocity); format: biochemical
Description: Kinetics: Kinetics were assessed by injecting 100 μl of 100 mM sodium phosphate buffer (pH 7) containing coelenterazine onto 1 μl of protein (diluted appropriately in EB containing 1% HSA), and recording the light output for 20 min. The final coelenterazine concentrations tested were 118, 24, 4.7, 0.94, 0.19, and 0.038 μM. The final Luciferase concentrations were in the range of 1-7 pM. Coelenterazine absorbance was corrected for, although this was only significant for the highest concentration (10% attenuation). The values were converted from photons/s to molecules/s using the data from the quantum yield measurements, converted from flux units to mass units via integration, and processed using the kinetic curve fitting program Dynafit.

[7] = system: 293T cells; assay: Mammalian expression, transient transfection, light output in 293T cells; format: cell-based, human; conditions: pcDNA 3.1 CMV plasmid, 24 hours post transfection, coelenterazine
From the text: (§2) Mammalian Expression: In order to construct mammalian expression vectors, bacterial expression vectors containing the desired mutations were used as templates for PCR, with primers designed such that the N-terminal pelB sequence would be replaced by a methionine codon and a C-terminal stop codon would replace the Myc epitope and 6×His tag. The primers also contained appropriate NheI and HindIII restriction sites to allow insertion of the product into the pcDNA 3.1 plasmid (Invitrogen). The resultant plasmids were transiently transfected using SuperFect (Qiagen) into 293T or Chinese Hamster Ovarian (CHO, ATCC# CCL-61) cells growing in 24 well plates following the manufacturer's protocol. Twenty-four hours post transfection, 0.5 μg/well of coelenterazine was added, and the plates were imaged in an IVIS 50 imaging system (Xenogen, Alameda, Calif.).

[8] = system: CHO cells; assay: Mammalian expression, transient transfection, light output in CHO cells; format: cell-based, Chinese Hamster; conditions: pcDNA 3.1 CMV plasmid, 24 hours post transfection, coelenterazine
From the text: as §2

[9] = system: 293T cells implanted in nude mice; assay: In vivo animal imaging of BRET^2 expression with cooled CCD camera; design: species or system mouse; conditions: 3×10^6 transfected 293T cells s.c. in nude mice, DBC i.v.
Description: In Vivo Animal Imaging of BRET^2 Expression by Using a Cooled CCD Camera: 293T cells transiently transfected with either phRluc or pBRET^2 were harvested 24 hours post-transfection and resuspended in PBS. An aliquot of 3×10^6 cells each was injected s.c. in a set of 3 anesthetized (ketamine:xylazine 4:1) nude mice. One hour after cell injection, 20 μg/mouse of DBC diluted in D-PBS (100 μl total volume) was injected via tail vein (i.v.) and imaged immediately using the CCD camera. For the deep tissue signal detection experiment, 3×10^6 cells each were injected intravenously in another set of anesthetized nude mice, and a scan was performed half an hour later after 100 μg/mouse of DBC injection. For protein-protein interaction experiments, 293T cells were transiently transfected with either pBRET^2, pFKBP12-hRluc alone or co-transfected with pFKBP12-hRluc and pGFP^2-FRB in 1:1 DNA ratio. The cells were harvested 24 hours post-transfection and re-suspended in PBS after counting the cell number. An aliquot of 5×10^6 cells each was injected s.c. in a set of 6 nude mice. Three of these mice were kept aside, while the other 3 mice received single dose of 5 mg/kg rapamycin intra-peritonially (i.p.). After 7 hours, mice were injected intravenously with 25 μg of DBC/mouse and imaged using specified filters. […]

[10] = RLuc purified directly from Renilla reniformis; cited from earlier work
[11] = cited from earlier work
[12] = recombinant RLuc, hamster blood at 37° C.; cited from earlier work
[13] = coelenterazine 0.038 to 24 μM, formal standard error of fit

B1: Native RLuc: Luciferase from Renilla reniformis, native enzyme (SEQ ID NO: 1) (protein)
chain: MASKVYDPEQRKRMITGPQWWARCKQMNVLDSFINYYDSEKHAENAVIFLHGNAASSYLWRHVVPHIEPVARCIIPDLIGMGKSGKSGNGSYRLLDHYKYLTAWFELLNLPKKIIFVGHDWGACLAFHYSYEHQDKIKAIVHAESVVDVIESWDEWPDIEEDIALIKSEEGEKMVLENNFFVETMLPSKIMRKLEPEEFAAYLEPFKEKGEVRRPTLSWPREIPLVKGGKPDVVQIVRNYNAYLRASDDLPKMFIESDPGFFSNAIVEGAKKFPNTEFVKVKGLHFSQEDAPDEMGKYIKSFVERVLKNEQ
modifications: Chemically synthesized Renilla Luciferase
Activity (photons/s/mole enzyme) bc ([1]; benzyl-coelenterazine, absolute units): 5.4 × 10^22 photons/s/mole enzyme | Activity (photons/s/mole enzyme) bdc ([1]; bisdeoxycoelenterazine, absolute units (overestimation per footnote)): 5.8 × 10^19 photons/s/mole enzyme | Activity (photons/s/mole enzyme) cp ([1]; coelenterazine-cp, absolute units): 1.7 × 10^22 photons/s/mole enzyme | Activity (photons/s/mole enzyme) n ([1]; coelenterazine-n, absolute units): 8.3 × 10^21 photons/s/mole enzyme | Activity (photons/s/mole enzyme) native ([1]; native coelenterazine, absolute units): (3.2 ± 0.3) × 10^22 photons/s/mole enzyme | Serum τ1/2 (h) mouse [2]: 0.9 h | Serum τ1/2 (h) rat [3]: 0.4 h | Wavelength (nm) mean [4]: 497 nm | Wavelength (nm) peak [4]: 482 nm | Quantum Yield (%) bc ([5]; benzyl-coelenterazine): 3.2 ± 0.04% | Quantum Yield (%) bdc ([5]; bisdeoxycoelenterazine): (6.1 ± 0.9) × 10^−3% | Quantum Yield (%) cp ([5]; coelenterazine-cp): 4.7 ± 0.03% | Quantum Yield (%) n ([5]; coelenterazine-n): 6.1 ± 0.2% | Quantum Yield (%) native ([5]; native coelenterazine): 5.3 ± 0.1% | Km [6, 13]: 2.9 ± 1 µM | kcat [6, 13]: 3.9 ± 0.4 s⁻¹ | Peak light flux ([6]; recombinant RLuc, 24 μM coelenterazine): 1.2±0.2×10^23 photons/s/mole enzyme | Light output after transient transfection, 293T [7]: 22.5 ± 0.7 photons × 10^6/s/cm^2/steradian | Light output after transient transfection, CHO [8]: 11.7 ± 1.2 photons × 10^6/s/cm^2/steradian | average radiance on GFP^2 filter, subcutaneous implants [9]: 0.342±0.031×10^3 photons/sec/cm^2/steradian | previously published emission peak [10]: 482 nm | reported peak light flux ([11]; RLuc purified directly from Renilla reniformis): 6.5×10^22 photons/s/mole enzyme | Km ([11]; in the presence of benzyl-coelenterazine, read-out: previously published Km): 2 µM | reported peak light flux ([11]; recombinant RLuc): 9×10^22 photons/s/mole enzyme | half-life in hamster blood [12]: 36 min
